This is an account of results in patent publication US8586570B2, “Sox-based kinase sensor” (Massachusetts Institute of Technology, priority 2006, dated 2013).

In series [1] the target is T1, PKCα (Homo sapiens, UniProt P17252). The series is described as follows: Kinetic parameters of the peptides with PKCα (continuous fluorescence assay). The settings on record: for Km / Vmax: with PKCα. Format: biochemical. An excerpt: To solve for enzyme kinetic parameters for this reaction, determination of the initial rate of product formation from the increase in fluorescence intensity is necessary. With this sensor, a correction for the decrease in fluorescence intensity due to the starting material being consumed is needed to determine the rate of product formation from the initial slope. The fluorescence intensity at any given point can be determined from the following equation: I(t)=fSs(t)+fPP(t) (1) where I(t) is the fluorescence intensity, S(t) is the amount of substrate in μM, P(t) is the amount of product in μM, fS is the fluorescence intensity per μM of substrate, and fP is fluorescence intensity per μM of product. The amount of substrate and product at any given point are related by: S(t)+P(t)=S0 (2) where S0 is the initial amount of substrate. Substitution of (2) into (1) followed by rearrangement, yields:
[formula] The initial slope of the reaction, dI(t)/dt, was measured within the first 5% of substrate turnover. The constants fP and fS were calculated from the slope of a line of fluorescence intensity versus concentration of P and S, respectively. A linear fit of a Hanes plot ([S]/V vs. […]) was used to find Km and Vmax.
For in vitro applications, the concentration of kinase can range from about 0.5 nM to about 1 μM, typically not more than about 500 nM, and preferably not more than about 250 nM. The concentrations of sensor can vary, but usually ranges between about 0.01 μM to 0.1 mM. Adenosine 5′-triphosphate (ATP) is the preferred source of phosphate, in stock solutions of about 10-100 mM. Because most kinases have Km values for ATP in the range of about 10-150 μM, saturating concentrations of ATP are used to arrive at values of Km and Vmax for the substrates. For in vivo applications, when the sensor is internalized into a cell, sufficient kinases, Mg^2+ and phosphate sources exist in the cytosol. For in vivo sensing, a cellular internalization sequence can be included in the sensor design. Suitable cellular internalization sequences include Penetratins, HIV-Tat domains and poly-arginine sequences (Lindgren, M. et al. Trends Pharmacol. Sci. 2000, 21, 99-103; Wadia, J. S. et al. Curr Opin. Biotech. 2002, 13, 52-56; Carrigan, C. N. Analyt. Biochem. 2005, 341, 290-298).
For applications in which the kinase is dependent on cofactors, a source of cofactor is also included in the sample. For example, for PKC, sources of Ca^2+, phospholipid and diacylglycerol are needed.
(§1) Fluorescence experiments were performed on a Fluoromax 3 from Jobin Yvon. 5 nm emission and excitation slit widths were used. For all experiments, an excitation wavelength of 360 nm was used. Enzyme assays were performed by monitoring emission at 485 nm.

Series [2] is described as follows: Fluorescence increase, phosphopeptide vs unphosphorylated peptide at 485 nm. The class given is physicochemical. The conditions noted are these: phosphopeptide / unphosphorylated peptide intensity at 485 nm, generally 10 mM Mg2+. On the procedure: as §1
After peptide characterization, emission spectra were obtained for unphosphorylated and phosphorylated peptides under appropriate conditions. The spectra were generally acquired in the presence of 10 mM Mg^2+(although lower Mg^2+concentrations can and have been used as well) and either 0, 0.1 or 1 mM ATP in a preselected buffer (usually 20 mM HEPES, pH 7.4). Relying on the emission spectra the fold fluorescence differences were measured by dividing the fluorescence intensity of the phosphopeptide by the fluorescence intensity of its unphosphorylated counterpart at 485 nm. FIG. 2 depicts the fluorescence spectra of the phosphorylated and unphosphorylated peptides in the appropriate assay mixture: (A) emissions scans of PKCβI-1 (10 μM), 10 mM Mg(II), 3×; (B) emissions scans of PKCβI-1 (10 μM), 10 mM Mg(II), 0 mM ATP, 3×.; (C) fluorescence difference for PKCβI-1 (10 μM), 10 mM Mg(II), 3×; (D) fluorescence increase for PKCβI-1 (10 μM) at 10 mM Mg (II).

In series [3] the target is T1, PKCα. The conditions noted are these: optimal PKCα peptide substrate selected from the literature; cited from earlier work.
Series [4] relates to PKC isozymes present in cells. As to the kind of experiment: Use of sensor in cell lysates. An excerpt:
In comparison, the chemosensors with the extended recognition domain as disclosed in the present invention for PKCα, PKCα-S9 and PKCα-S10, also have good biophysical properties (Table IV).

Read-outs that look alike come from different tables or passages of the source.

By Km is commonly meant the substrate concentration at which the rate is half of its maximum. Usually Vmax stands for the rate approached at saturating substrate. As to “Ac-R R R-C(Sox)-G-(p)S F R R K A-NH2 [PKCα-S9(P9)]”, in the series with PKCα [1] (as determined by kinetic parameters, compared with PKCα-S1), the “selectivity for PKCα” value is recorded as “much more selective for PKCα”. For the same substance, in the series with PKCα [1], the Michaelis constant (Km) was determined as 0.093 ± 0.017 µM and the Vmax was found to be 1.8 ± 0.12 µmol/min/mg. In addition, in series [2], the “Fluorescence Increase” value turned out to be 3.5 x.
On to “RRRKGS*FRRKA (RRRKGSFRRKA) [optimal PKCα peptide substrate selected from the literature]”, for which the Km in the series with PKCα [3] was 3.8 µM.
In the case of “Ac-Sox-P-G-(p)S F R R R-NH2 [PKCα-S1(P1), reference compound]”, in the series with PKCα [1], the Km was 8.6 ± 2.9 µM and the Vmax turned out to be 5.9 ± 1.9 µmol/min/mg. Also, the “reactivity in cell lysates” value in series [4] is recorded as “reactive toward many of the PKC isozymes”. In series [2], the “Fluorescence Increase” value is listed as 5.7 x.
